The source of these data is patent US20250297019A1.

The target in assay [1] is human CCR8 (human) (UniProt P51685). The assay can be described thus: cell-based or functional assay.
Assay [2] has as its target cynomolgus monkey CCR8 (cynomolgus monkey). The experiment in a line: assay not described ('in vitro assays').
Assay [3] addresses human CCR8 (human) (UniProt P51685). The assay can be described thus: assay not described ('in vitro assays').

Sequence of cynomolgus monkey CCR8 (cynomolgus monkey) (O97665 other isoform, or with tags, fused parts or gaps): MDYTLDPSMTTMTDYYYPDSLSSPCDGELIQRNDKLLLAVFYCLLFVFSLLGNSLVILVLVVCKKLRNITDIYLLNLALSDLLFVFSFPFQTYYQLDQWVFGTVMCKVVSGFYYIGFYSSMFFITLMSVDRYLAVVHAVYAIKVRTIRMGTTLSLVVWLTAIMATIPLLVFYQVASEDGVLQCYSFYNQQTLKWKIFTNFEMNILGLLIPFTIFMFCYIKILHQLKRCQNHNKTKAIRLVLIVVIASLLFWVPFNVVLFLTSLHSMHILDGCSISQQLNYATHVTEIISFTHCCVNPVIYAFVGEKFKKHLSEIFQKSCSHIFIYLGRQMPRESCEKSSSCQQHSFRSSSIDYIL

Usually Kd stands for the free concentration of one partner at which half of the binding sites on the other are occupied at equilibrium, for simple one-to-one binding. As to RO7502175 (antibody), the ADCC geometric mean EC50 (calcein release; PBMC effector cells of 8 donors, hCCR8.GNA15 CHO target cells) with human CCR8 (human) [1] is 3 ng/mL. In addition, the Kd in assay [2] came to 27 µM; with human CCR8 (human) [3] it was 32 µM.

Consider “murine anti-human CCR8 mAb L263G8 (Biolegend) (antibody)”, for which, in the assay with human CCR8 (human) [1], the IC50 of CCL1 blocking (Ca2+ influx, CHO/hCCR8.Gna15 cells) is 0.0236 µM; the induction fold at plateau (about 40 nM antibody), mFcgRIV Jurkat reporter with CHO/hCCR8 is 11 fold; the induction fold, mFcgRIV Jurkat NFAT-luciferase reporter with CHO/hCCR8, at about 1 nM antibody was > 10 .fold.
